# Measurements: IntAct's records for PubMed 26635368
# B1: Sprouty-related, EVH1 domain-containing protein 1 (Homo sapiens), Q7Z699 (parent)
# chain: MSEETATSDNDNSYARVRAVVMTRDDSSGGWLPLGGSGLSSVTVFKVPHQEENGCADFFIRGERLRDKMVVLECMLKKDLIYNKVTPTFHHWKIDDKKFGLTFQSPADARAFDRGIRRAIEDISQGCPESKNEAEGADDLQANEEDSSSSLVKDHLFQQETVVTSEPYRSSNIRPSPFEDLNARRVYMQSQANQITFGQPGLDIQSRSMEYVQRQISKECGSLKSQNRVPLKSIRHVSFQDEDEIVRINPRDILIRRYADYRHPDMWKNDLERDDADSSIQFSKPDSKKSDYLYSCGDETKLSSPKDSVVFKTQPSSLKIKKSKRRKEDGERSRCVYCQERFNHEENVRGKCQDAPDPIKRCIYQVSCMLCAESMLYHCMSDSEGDFSDPCSCDTSDDKFCLRWLALVALSFIVPCMCCYVPLRMCHRCGEACGCCGGKHKAAG
# Variants of: B1
# Conditions: with nf1_human NF1, P21359
# Sequence of nf1_human NF1, P21359 (P21359 whole entry): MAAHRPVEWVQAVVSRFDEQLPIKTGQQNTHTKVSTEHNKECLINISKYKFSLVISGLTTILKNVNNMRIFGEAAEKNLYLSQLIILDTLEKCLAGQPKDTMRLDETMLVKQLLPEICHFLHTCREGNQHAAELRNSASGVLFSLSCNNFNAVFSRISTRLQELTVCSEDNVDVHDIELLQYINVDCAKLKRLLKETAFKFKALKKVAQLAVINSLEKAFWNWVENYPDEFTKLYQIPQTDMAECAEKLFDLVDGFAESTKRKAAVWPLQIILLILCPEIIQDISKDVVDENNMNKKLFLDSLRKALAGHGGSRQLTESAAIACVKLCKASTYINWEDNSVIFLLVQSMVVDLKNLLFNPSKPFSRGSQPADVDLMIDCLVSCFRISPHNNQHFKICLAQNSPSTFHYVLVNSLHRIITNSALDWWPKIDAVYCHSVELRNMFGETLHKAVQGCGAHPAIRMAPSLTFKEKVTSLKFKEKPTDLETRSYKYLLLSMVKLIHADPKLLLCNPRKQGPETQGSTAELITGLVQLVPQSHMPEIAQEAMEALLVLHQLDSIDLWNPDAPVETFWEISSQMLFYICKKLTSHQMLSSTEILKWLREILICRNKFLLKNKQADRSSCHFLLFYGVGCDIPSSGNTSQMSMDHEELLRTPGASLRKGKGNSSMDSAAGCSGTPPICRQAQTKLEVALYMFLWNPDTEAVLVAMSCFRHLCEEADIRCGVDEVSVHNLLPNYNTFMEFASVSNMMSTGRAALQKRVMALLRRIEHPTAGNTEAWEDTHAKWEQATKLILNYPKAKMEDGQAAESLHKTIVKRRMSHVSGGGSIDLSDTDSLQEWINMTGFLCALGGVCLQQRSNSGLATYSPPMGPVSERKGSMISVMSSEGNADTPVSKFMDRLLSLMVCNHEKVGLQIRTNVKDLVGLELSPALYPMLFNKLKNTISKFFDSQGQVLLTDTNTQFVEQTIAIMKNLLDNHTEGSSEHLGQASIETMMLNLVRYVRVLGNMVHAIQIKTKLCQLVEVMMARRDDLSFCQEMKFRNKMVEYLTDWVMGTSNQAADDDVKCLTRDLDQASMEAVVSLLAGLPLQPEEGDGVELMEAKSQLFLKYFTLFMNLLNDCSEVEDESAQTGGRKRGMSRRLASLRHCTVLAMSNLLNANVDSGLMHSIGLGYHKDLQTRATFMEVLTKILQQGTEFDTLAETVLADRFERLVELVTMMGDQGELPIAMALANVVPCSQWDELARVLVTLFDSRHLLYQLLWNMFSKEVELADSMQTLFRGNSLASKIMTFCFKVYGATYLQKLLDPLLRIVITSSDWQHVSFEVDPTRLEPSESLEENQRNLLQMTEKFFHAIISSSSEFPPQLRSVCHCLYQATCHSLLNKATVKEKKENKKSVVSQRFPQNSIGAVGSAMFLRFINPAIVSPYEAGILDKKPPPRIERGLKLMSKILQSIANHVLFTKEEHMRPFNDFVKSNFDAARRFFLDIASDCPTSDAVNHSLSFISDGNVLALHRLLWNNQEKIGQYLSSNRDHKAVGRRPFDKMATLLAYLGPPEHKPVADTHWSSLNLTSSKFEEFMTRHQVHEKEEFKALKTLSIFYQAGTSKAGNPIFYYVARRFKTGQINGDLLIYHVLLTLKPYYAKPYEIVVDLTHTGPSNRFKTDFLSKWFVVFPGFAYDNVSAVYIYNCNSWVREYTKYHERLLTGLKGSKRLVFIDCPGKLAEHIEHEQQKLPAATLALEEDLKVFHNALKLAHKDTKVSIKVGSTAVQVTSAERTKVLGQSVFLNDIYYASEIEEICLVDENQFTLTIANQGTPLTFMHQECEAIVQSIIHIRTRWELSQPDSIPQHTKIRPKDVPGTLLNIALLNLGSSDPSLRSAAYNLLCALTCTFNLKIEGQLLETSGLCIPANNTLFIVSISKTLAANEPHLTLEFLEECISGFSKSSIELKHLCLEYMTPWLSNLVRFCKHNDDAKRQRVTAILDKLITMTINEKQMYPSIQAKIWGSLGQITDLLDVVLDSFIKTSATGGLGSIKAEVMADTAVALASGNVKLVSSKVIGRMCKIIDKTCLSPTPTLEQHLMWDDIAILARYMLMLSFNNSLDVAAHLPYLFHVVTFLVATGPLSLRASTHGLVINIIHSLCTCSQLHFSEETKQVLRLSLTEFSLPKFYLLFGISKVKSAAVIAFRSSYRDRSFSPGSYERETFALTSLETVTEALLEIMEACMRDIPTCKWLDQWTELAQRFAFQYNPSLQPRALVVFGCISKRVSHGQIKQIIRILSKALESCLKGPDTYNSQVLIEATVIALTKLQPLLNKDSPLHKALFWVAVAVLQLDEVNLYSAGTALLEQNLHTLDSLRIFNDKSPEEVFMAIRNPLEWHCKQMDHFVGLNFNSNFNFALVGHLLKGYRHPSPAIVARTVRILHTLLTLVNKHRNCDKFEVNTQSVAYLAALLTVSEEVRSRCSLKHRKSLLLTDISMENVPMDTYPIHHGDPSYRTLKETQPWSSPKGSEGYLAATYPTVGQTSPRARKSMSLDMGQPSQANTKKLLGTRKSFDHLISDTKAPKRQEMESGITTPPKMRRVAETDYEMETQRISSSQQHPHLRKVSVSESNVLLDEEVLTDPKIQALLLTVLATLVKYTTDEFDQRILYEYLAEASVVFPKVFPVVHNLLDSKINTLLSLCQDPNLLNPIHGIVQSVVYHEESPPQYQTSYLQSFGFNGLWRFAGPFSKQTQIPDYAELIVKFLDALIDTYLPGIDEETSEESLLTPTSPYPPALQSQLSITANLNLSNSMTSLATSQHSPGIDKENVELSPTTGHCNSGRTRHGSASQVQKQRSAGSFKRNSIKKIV
row,effect of a mutation on the interaction,Variant
1,disrupting interaction strength,V44D
2,decreasing interaction strength,R24Q
3,decreasing interaction strength,L80R
4,decreasing interaction strength,G100D
5,with no effect,V42I
6,decreasing interaction strength,G62R
7,decreasing interaction strength,G30R
8,with no effect,D9V
9,disrupting interaction strength,W92R
10,with no effect,C74F
11,decreasing interaction strength,I116N
12,disrupting interaction strength,T102K
13,decreasing interaction strength,T102M
14,decreasing interaction strength,T102R
15,decreasing interaction strength,W31C
16,disrupting interaction strength,W31L
17,disrupting interaction strength,T88K
18,with no effect,N10K

# Variants of: B1
# Conditions: with nf1_human NF1, P21359
# Remark: another data set of the same source
row,effect of a mutation on the interaction,Variant
1,disrupting interaction strength,G30R
2,disrupting interaction strength,W31C

# Variants of: B1
# Conditions: with nf1_human NF1, P21359
# Remark: another data set of the same source
row,effect of a mutation on the interaction,Variant
1,disrupting interaction strength,T102R
